According to patent US20170100454A1 (VANDERBILT UNIVERSITY, published 2017):
One block for each molecule: values may come before it. Positions of bridges follow the written chain, without caps; N, C: chain ends. No end group written: not given here. *: point of attachment. Biotin = O=C1N[C@H]2[C@H](CS[C@H]2CCCCC(=O)*)N1

Key:
[1] = biological target: GST-tagged Imp α5 ΔIBB (human) (UniProt P52294); assay: BLI (Octet RED96), biotinylated N50 on SA biosensors, GST-tagged Imp α5 ΔIBB at 50-200 nM, 2:1 model; column Imp α5 Major
Chain of GST-tagged Imp α5 ΔIBB (human) (P52294 101-529, stated change not applied): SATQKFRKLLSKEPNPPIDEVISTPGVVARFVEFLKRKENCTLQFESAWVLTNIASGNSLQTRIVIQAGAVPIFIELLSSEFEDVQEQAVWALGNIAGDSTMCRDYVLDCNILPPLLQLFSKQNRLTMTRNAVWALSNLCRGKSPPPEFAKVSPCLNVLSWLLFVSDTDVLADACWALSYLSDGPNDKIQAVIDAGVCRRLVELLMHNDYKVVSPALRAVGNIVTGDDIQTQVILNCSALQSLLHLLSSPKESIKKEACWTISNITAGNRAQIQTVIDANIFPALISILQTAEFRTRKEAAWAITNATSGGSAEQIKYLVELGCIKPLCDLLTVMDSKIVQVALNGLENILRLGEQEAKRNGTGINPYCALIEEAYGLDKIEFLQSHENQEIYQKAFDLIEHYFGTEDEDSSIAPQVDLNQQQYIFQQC

[2] = biological target: GST-tagged Imp α5 ΔIBB (human) (UniProt P52294); assay: BLI (Octet RED96), biotinylated N50 on SA biosensors, GST-tagged Imp α5 ΔIBB at 50-200 nM, 2:1 model; column Imp α5 Minor
[3] = biological target: GST-tagged Imp α5 ΔIBB (human) (UniProt P52294); assay: BLI, biotinylated N50 on SA biosensors; reference is GST-tagged Imp α1 ΔIBB
[4] = biological target: T1, Endogenous human importin alpha 7 (human, UniProt O60684 1-536); assay: pull-down: biotinylated peptide in Jurkat T whole cell lysate, streptavidin-coated beads, immunoblot
T1 construct: mature; also called Imp α7

[5] = biological target: T2, Endogenous human importin beta 1 (human, UniProt Q14974 1-876); assay: as above
T2 construct: mature; Endogenous protein in whole cell lysates, and in Hep-G2 cells for the functional rows; also called Imp β1; KPNB1
T2 sequence (Q14974 whole entry): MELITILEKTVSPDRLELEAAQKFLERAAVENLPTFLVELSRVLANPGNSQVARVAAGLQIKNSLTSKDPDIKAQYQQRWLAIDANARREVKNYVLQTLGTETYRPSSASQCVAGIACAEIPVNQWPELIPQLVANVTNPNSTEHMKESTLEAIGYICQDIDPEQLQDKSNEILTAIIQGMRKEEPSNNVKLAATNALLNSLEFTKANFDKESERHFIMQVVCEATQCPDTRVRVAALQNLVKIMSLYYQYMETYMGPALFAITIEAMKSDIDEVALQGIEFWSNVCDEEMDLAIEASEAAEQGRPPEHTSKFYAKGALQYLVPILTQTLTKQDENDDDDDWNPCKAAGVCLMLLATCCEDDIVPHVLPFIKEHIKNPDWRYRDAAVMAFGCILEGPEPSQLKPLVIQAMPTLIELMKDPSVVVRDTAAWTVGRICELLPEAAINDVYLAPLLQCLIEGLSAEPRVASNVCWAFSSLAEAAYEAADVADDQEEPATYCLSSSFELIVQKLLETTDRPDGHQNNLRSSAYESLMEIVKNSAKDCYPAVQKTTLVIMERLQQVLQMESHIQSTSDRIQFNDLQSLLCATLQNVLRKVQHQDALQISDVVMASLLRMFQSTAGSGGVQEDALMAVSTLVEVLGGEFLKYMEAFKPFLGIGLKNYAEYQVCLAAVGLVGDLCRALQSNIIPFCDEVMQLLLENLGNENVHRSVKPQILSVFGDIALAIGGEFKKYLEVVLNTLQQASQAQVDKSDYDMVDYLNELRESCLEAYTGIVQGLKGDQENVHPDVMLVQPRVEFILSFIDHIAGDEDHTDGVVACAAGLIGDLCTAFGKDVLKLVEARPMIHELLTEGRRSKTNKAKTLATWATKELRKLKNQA

GAPDH [6] = biological target: T3, GAPDH (Homo sapiens, UniProt P04406); assay: as above
T3 construct: endogenous, as present in the lysate; also called cellular protein GAPDH
T3 sequence (P04406 2-335 limits assumed): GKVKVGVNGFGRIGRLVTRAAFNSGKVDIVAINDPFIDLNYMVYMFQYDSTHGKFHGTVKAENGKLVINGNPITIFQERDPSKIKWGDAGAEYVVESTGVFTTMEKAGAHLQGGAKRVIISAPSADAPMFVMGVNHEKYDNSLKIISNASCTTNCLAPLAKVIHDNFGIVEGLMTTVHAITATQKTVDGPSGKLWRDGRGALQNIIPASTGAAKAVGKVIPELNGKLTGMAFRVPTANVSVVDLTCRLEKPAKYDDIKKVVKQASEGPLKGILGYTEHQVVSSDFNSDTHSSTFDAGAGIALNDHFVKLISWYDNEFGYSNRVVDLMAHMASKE

[7] = biological target: T4, Endogenous human importin alpha 3 (human, UniProt O00629 2-521); assay: as above
T4 construct: mature; also called Imp α3
T4 sequence (looked up): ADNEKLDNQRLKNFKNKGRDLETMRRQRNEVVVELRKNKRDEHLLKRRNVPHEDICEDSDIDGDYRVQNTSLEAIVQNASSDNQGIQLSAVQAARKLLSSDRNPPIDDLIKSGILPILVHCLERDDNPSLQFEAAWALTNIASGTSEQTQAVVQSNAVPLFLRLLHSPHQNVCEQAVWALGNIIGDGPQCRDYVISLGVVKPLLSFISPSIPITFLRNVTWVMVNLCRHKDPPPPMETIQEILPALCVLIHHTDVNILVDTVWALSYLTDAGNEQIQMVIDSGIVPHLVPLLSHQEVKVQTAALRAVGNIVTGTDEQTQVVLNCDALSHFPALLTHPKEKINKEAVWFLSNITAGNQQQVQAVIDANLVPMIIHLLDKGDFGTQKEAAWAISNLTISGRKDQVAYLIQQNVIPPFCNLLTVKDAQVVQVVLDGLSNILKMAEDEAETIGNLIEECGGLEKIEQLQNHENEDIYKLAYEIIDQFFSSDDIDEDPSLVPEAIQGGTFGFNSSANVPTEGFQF

[8] = biological target: T5, Endogenous human importin alpha 4 (human, UniProt O00505 2-521); assay: pull-down with biotinylated AR1 and SA beads from Jurkat T cell lysate, immunoblot
T5 construct: mature; also called Imp α4
T5 sequence (looked up): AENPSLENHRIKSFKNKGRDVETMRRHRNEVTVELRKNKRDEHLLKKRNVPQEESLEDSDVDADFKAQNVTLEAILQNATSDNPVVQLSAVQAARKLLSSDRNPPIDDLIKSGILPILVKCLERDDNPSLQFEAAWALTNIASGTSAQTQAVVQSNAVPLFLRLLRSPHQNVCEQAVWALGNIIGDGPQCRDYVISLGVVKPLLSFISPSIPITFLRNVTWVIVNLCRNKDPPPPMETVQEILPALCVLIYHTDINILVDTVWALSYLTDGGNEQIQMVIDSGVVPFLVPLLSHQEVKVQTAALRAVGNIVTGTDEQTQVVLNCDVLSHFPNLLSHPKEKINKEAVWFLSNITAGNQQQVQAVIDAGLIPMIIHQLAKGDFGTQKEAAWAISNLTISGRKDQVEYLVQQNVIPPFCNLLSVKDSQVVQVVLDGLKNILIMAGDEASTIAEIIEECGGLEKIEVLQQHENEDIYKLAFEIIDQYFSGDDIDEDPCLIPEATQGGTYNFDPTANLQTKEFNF

[9] = biological target: T1, Endogenous human importin alpha 7; assay: as above
[10] = biological target: T6, Endogenous human importin alpha 5 (human, UniProt P52294 1-529 at identity 1.00)); assay: as above
T6 construct: Endogenous protein in whole cell lysates, and in Hep-G2 cells for the functional rows; also called Imp α5; KPNA1
T6 sequence (P52294 1-529 S73N): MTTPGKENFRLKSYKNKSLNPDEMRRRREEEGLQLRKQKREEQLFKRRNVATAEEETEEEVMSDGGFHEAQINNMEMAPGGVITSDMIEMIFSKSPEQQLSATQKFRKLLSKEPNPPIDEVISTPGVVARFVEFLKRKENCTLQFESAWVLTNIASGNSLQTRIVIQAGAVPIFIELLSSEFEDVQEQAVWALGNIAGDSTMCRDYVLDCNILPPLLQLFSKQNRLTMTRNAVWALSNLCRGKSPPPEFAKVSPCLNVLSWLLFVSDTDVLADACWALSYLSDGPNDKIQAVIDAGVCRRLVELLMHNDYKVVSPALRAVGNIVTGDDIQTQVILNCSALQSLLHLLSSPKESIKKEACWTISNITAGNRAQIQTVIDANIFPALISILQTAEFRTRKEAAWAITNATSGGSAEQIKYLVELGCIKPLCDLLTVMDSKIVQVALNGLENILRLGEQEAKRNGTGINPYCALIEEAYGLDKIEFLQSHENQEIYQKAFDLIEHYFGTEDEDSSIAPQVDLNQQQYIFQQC

[11] = biological target: T4, Endogenous human importin alpha 3; assay: as above
[12] = biological target: Endogenous human importin alpha 1 (human) (UniProt P52292); assay: competition pull-down, 1.5 mg/mL Jurkat T cell lysate, 300 µM free N50 against biotinylated N50 on SA beads, quantitative immunoblot
[13] = biological target: T5, Endogenous human importin alpha 4; assay: as above
[14] = biological target: T6, Endogenous human importin alpha 5; assay: competition pull-down at 1.5 mg/mL Jurkat T lysate protein, biotinylated N50 on streptavidin beads as competitor, quantitative immunoblot
[15] = biological target: T1, Endogenous human importin alpha 7; assay: pull-down with biotinylated peptide and SA beads from whole cell lysate, immunoblot
[16] = biological target: T2, Endogenous human importin beta 1; assay: as above
GAPDH [17] = biological target: T3, GAPDH; assay: pull-down: biotinylated peptide in Jurkat T whole cell lysate, streptavidin-coated beads, immunoblot [A]

Molecule: LQLRKQKREEQLFKRRNVATA (also: biotinylated (position and linker not given here)) [Biotinylated AR5 peptide (auto-inhibitory region of Imp α5)]
- binding result [4]: no binding
- binding result [5]: no binding
- binding result (GAPDH [6]): no binding
- binding result [7]: no binding

Molecule: IQLRKQKREQQLFKRRNVELI (also: biotinylated (position and linker not given here)) [Biotinylated AR7 peptide (auto-inhibitory region of Imp α7)]
- binding result [5]: no binding
- binding result (GAPDH [6]): no binding

Molecule: VELRKAKKDDQMLKRRNVSSF (also: biotinylated (position and linker not given here)) [Biotinylated AR1 peptide (auto-inhibitory region of Imp α1)]
- binding result [5]: no binding
- binding result (GAPDH [6]): no binding
- binding result [8]: no binding
- binding result [9]: no binding
- binding result [10]: no binding
- binding result [11]: no binding

Molecule: VELRKNKRDEHLLKRRNVPHE (also: biotinylated (position and linker not given here)) [Biotinylated AR3 peptide (auto-inhibitory region of Imp α3)]
- binding result [4]: no binding
- binding result [5]: no binding
- binding result (GAPDH [6]): no binding

Molecule: Biotin-GGGGGCVQRKRQKLMPC (disulfide 6-17 (inferred), also called cyclized N50) [Biotinylated cN50.1 peptide]
- binding result [15]: no binding
- binding result [16]: no binding
- binding result (GAPDH [17]): no binding

Further lines, results first:

- Kd [1]: 73 nM
- Kd [2]: 140 nM
- fold maximum response against Imp α1 [3]: > 20 fold
Molecule: Biotinylated N50 peptide

- percent reduction of band intensity [12]: 20%
- percent reduction of band intensity [13]: 20%
- IC50 (read off the curve) [14]: ~10000 nM
B1: Unlabeled N50 peptide (peptide)
peptide: VQRKRQKLMP
notes: also called free N50; non-biotinylated N50 peptide

- binding result [4]: no binding
- binding result [5]: no binding
- binding result (GAPDH [6]): no binding
Molecule: VELRKNKRDEHLLKKRNVPQE (also: biotinylated (position and linker not given here)) [Biotinylated AR4 peptide (auto-inhibitory region of Imp α4)]
